Measurements reported in US20210163535A1 (KYUNGPOOK NATIONAL UNIVERSITY INDUSTRY ACADEMIC COOPERATION …, published 2021).
No end group written: not given here.

B1: v6Pep-2 (peptide)
peptide: CNEWQLKSC
modifications: cysteine pairing not given here; also: FITC-labelled or biotinylated, site of label not given here
notes: Selected from a CX7C phage display library; also called clone-2; FITC-v6Pep-2
B2: v6Pep-1 (peptide)
peptide: CNLNTIDTC
modifications: cysteine pairing not given here; also: FITC-labelled or biotinylated, site of label not given here
notes: Selected from a CX7C phage display library; also called clone-1; FITC-v6Pep-1

Target: T1, wild-type CD44 (UniProt P16070-12 21-361, limits assumed)
T1 construct: The isoform is not defined beyond 'wild-type'
Assay: pull-down of cell lysate with biotinylated peptide on avidin beads, Western blot

T1 sequence (P16070 other isoform, or with tags, fused parts or gaps limits assumed): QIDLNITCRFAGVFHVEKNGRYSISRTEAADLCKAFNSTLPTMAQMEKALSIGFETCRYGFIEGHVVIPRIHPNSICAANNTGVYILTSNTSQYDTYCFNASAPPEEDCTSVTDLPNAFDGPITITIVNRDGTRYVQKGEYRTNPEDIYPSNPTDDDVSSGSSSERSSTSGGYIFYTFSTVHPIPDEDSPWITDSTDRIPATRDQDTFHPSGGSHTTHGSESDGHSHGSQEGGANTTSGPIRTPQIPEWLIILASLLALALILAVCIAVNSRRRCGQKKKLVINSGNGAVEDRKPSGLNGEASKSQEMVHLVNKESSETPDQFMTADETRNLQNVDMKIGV

Binder | binding result
B1 | no binding
B2 | no binding
